Test results taken from paper PMC1933539.

Key:
[1] = biological target: SycO (Yersinia enterocolitica type three secretion chaperone SycO) (Yersinia enterocolitica WA-314); test: SEC; analytical gel filtration, SMART system, Superdex 75 PC 3.2/30 in PBS; 50 μg SycO mixed with 50 μg carbonic anhydrase (29 kDa marker); fractions analysed by SDS-PAGE; column calibrated with marker proteins
[2] = biological target: SycO (Yersinia enterocolitica type three secretion chaperone SycO) (Yersinia enterocolitica WA-314); test: cross-linking; 1.3 mM DSP, 3 μg/μl recombinant SycO in PBS, 30 min at 22°C; Coomassie-stained SDS-PAGE

SycO (Yersinia enterocolitica type three secretion chaperone SycO) (natural protein)
stoichiometry N [1]: 2 | stoichiometry N [2]: 2
